Test results taken from US20160297852A1 (FORSCHUNGSZENTRUM JUELICH, published 2016).
Where no end group is shown, it is not given here. [ ]: non-standard residue; d: D form.

Target: A beta oligomers of the QIAD test (A beta aggregated under controlled conditions) (UniProt P05067 672-713, limits assumed)
Assay: cell-based or functional assay

Chain of A beta oligomers of the QIAD test (A beta aggregated under controlled conditions) (P05067 672-713 limits assumed): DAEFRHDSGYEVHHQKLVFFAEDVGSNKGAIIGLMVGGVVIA

Binder | QIAD: reduction of oligomers in % [%]
[dR][dP][dR][dT][dR][dL][dH][dT][dH][dR][dN][dR][dP][dT][dL][dH][dT][dH][dN][dR][dR][dR][dR][dR]-NH2 (N-terminus assumed; SMILES CC(C)C[C@@H](NC(=O)[C@@H](CCCNC(=N)N)NC(=O)[C@H](NC(=O)[C@@H](CCCNC(=N)N)NC(=O)[C@H]1CCCN1C(=O)[C@H](N)CCCNC(=N)N)[C@H](C)O)C(=O)N[C@H](Cc1c[nH]cn1)C(=O)N[C@@H](C(=O)N[C@H](Cc1c[nH]cn1)C(=O)N[C@H](CCCNC(=N)N)C(=O)N[C@H](CC(N)=O)C(=O)N[C@H](CCCNC(=N)N)C(=O)N1CCC[C@@H]1C(=O)N[C@@H](C(=O)N[C@H](CC(C)C)C(=O)N[C@H](Cc1c[nH]cn1)C(=O)N[C@@H](C(=O)N[C@H](Cc1c[nH]cn1)C(=O)N[C@H](CC(N)=O)C(=O)N[C@H](CCCNC(=N)N)C(=O)N[C@H](CCCNC(=N)N)C(=O)N[C@H](CCCNC(=N)N)C(=O)N[C@H](CCCNC(=N)N)C(=O)N[C@H](CCCNC(=N)N)C(N)=O)[C@H](C)O)[C@H](C)O)[C@H](C)O) [D3RD2 amidated] | 88
[dP][dT][dL][dH][dT][dH][dN][dR][dR][dR][dR][dR]-NH2 (N-terminus assumed; SMILES CC(C)C[C@@H](NC(=O)[C@H](NC(=O)[C@H]1CCCN1)[C@H](C)O)C(=O)N[C@H](Cc1c[nH]cn1)C(=O)N[C@@H](C(=O)N[C@H](Cc1c[nH]cn1)C(=O)N[C@H](CC(N)=O)C(=O)N[C@H](CCCNC(=N)N)C(=O)N[C@H](CCCNC(=N)N)C(=O)N[C@H](CCCNC(=N)N)C(=O)N[C@H](CCCNC(=N)N)C(=O)N[C@H](CCCNC(=N)N)C(N)=O)[C@H](C)O) [RD2 amidated] | 78
[dR][dP][dR][dT][dR][dL][dH][dT][dH][dR][dN][dR][dR][dP][dR][dT][dR][dL][dH][dT][dH][dR][dN][dR]-NH2 (N-terminus assumed; SMILES CC(C)C[C@@H](NC(=O)[C@@H](CCCNC(=N)N)NC(=O)[C@H](NC(=O)[C@@H](CCCNC(=N)N)NC(=O)[C@H]1CCCN1C(=O)[C@H](N)CCCNC(=N)N)[C@H](C)O)C(=O)N[C@H](Cc1c[nH]cn1)C(=O)N[C@@H](C(=O)N[C@H](Cc1c[nH]cn1)C(=O)N[C@H](CCCNC(=N)N)C(=O)N[C@H](CC(N)=O)C(=O)N[C@H](CCCNC(=N)N)C(=O)N[C@H](CCCNC(=N)N)C(=O)N1CCC[C@@H]1C(=O)N[C@H](CCCNC(=N)N)C(=O)N[C@@H](C(=O)N[C@H](CCCNC(=N)N)C(=O)N[C@H](CC(C)C)C(=O)N[C@H](Cc1c[nH]cn1)C(=O)N[C@@H](C(=O)N[C@H](Cc1c[nH]cn1)C(=O)N[C@H](CCCNC(=N)N)C(=O)N[C@H](CC(N)=O)C(=O)N[C@H](CCCNC(=N)N)C(N)=O)[C@H](C)O)[C@H](C)O)[C@H](C)O) [D3D3 amidated] | 98
[dR][dP][dR][dT][dR][dL][dH][dT][dH][dR][dN][dR]-NH2 (N-terminus assumed; SMILES CC(C)C[C@@H](NC(=O)[C@@H](CCCNC(=N)N)NC(=O)[C@H](NC(=O)[C@@H](CCCNC(=N)N)NC(=O)[C@H]1CCCN1C(=O)[C@H](N)CCCNC(=N)N)[C@H](C)O)C(=O)N[C@H](Cc1c[nH]cn1)C(=O)N[C@@H](C(=O)N[C@H](Cc1c[nH]cn1)C(=O)N[C@H](CCCNC(=N)N)C(=O)N[C@H](CC(N)=O)C(=O)N[C@H](CCCNC(=N)N)C(N)=O)[C@H](C)O) [D3 amidated] | 56
[dP][dT][dL][dH][dT][dH][dN][dR][dR][dR][dR][dR][dR][dP][dR][dT][dR][dL][dH][dT][dH][dR][dN][dR]-NH2 (N-terminus assumed; SMILES CC(C)C[C@@H](NC(=O)[C@@H](CCCNC(=N)N)NC(=O)[C@H](NC(=O)[C@@H](CCCNC(=N)N)NC(=O)[C@H]1CCCN1C(=O)[C@@H](CCCNC(=N)N)NC(=O)[C@@H](CCCNC(=N)N)NC(=O)[C@@H](CCCNC(=N)N)NC(=O)[C@@H](CCCNC(=N)N)NC(=O)[C@@H](CCCNC(=N)N)NC(=O)[C@@H](CCCNC(=N)N)NC(=O)[C@@H](CC(N)=O)NC(=O)[C@@H](Cc1c[nH]cn1)NC(=O)[C@H](NC(=O)[C@@H](Cc1c[nH]cn1)NC(=O)[C@@H](CC(C)C)NC(=O)[C@H](NC(=O)[C@H]1CCCN1)[C@H](C)O)[C@H](C)O)[C@H](C)O)C(=O)N[C@H](Cc1c[nH]cn1)C(=O)N[C@@H](C(=O)N[C@H](Cc1c[nH]cn1)C(=O)N[C@H](CCCNC(=N)N)C(=O)N[C@H](CC(N)=O)C(=O)N[C@H](CCCNC(=N)N)C(N)=O)[C@H](C)O) [RD2D3 amidated] | 100
[dP][dT][dL][dH][dT][dH][dN][dR][dR][dR][dR][dR][dP][dT][dL][dH][dT][dH][dN][dR][dR][dR][dR][dR]-NH2 (N-terminus assumed; SMILES CC(C)C[C@@H](NC(=O)[C@H](NC(=O)[C@H]1CCCN1C(=O)[C@@H](CCCNC(=N)N)NC(=O)[C@@H](CCCNC(=N)N)NC(=O)[C@@H](CCCNC(=N)N)NC(=O)[C@@H](CCCNC(=N)N)NC(=O)[C@@H](CCCNC(=N)N)NC(=O)[C@@H](CC(N)=O)NC(=O)[C@@H](Cc1c[nH]cn1)NC(=O)[C@H](NC(=O)[C@@H](Cc1c[nH]cn1)NC(=O)[C@@H](CC(C)C)NC(=O)[C@H](NC(=O)[C@H]1CCCN1)[C@H](C)O)[C@H](C)O)[C@H](C)O)C(=O)N[C@H](Cc1c[nH]cn1)C(=O)N[C@@H](C(=O)N[C@H](Cc1c[nH]cn1)C(=O)N[C@H](CC(N)=O)C(=O)N[C@H](CCCNC(=N)N)C(=O)N[C@H](CCCNC(=N)N)C(=O)N[C@H](CCCNC(=N)N)C(=O)N[C@H](CCCNC(=N)N)C(=O)N[C@H](CCCNC(=N)N)C(N)=O)[C@H](C)O) [RD2RD2 amidated] | 97
